{"source": "paper doi:10.1101/2024.09.18.613619", "about": "(bioRxiv, 2024)", "binders": {"B1": {"name": "Rpn11 (Saccharomyces cerevisiae proteasome lid subunit) (natural protein, S. cerevisiae, UniProt P43588 1-306, looked up)", "chain": "MERLQRLMMNSKVGSADTGRDDTKETVYISSIALLKMLKHGRAGVPMEVMGLMLGEFVDDYTVNVVDVFAMPQSGTGVSVEAVDDVFQAKMMDMLKQTGRDQMVVGWYHSHPGFGCWLSSVDVNTQKSFEQLNSRAVAVVVDPIQSVKGKVVIDAFRLIDTGALINNLEPRQTTSNTGLLNKANIQALIHGLNRHYYSLNIDYHKTAKETKMLMNLHKEQWQSGLKMYDYEEKEESNLAATKSMVKIAEQYSKRIEEEKELTEEELKTRYVGRQDPKKHLSETADETLENNIVSVLTAGVNSVAIK"}}, "target": "T1, Rpn8 (Saccharomyces cerevisiae proteasome lid subunit) (S. cerevisiae, UniProt Q08723 1-338)", "T1 sequence (looked up)": "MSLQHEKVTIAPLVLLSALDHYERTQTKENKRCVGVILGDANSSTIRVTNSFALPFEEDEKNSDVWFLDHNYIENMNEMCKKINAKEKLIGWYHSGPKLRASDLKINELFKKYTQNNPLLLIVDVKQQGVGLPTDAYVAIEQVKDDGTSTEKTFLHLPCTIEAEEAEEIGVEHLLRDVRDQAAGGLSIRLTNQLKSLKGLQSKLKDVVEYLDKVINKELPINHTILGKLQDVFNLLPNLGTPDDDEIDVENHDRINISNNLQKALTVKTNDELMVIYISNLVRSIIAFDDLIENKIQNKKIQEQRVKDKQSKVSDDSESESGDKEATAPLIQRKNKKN", "assay": "two-hybrid"}
{"binder": "B1", "values": [{"measurement": "β-galactosidase activity relative to the GlRpn8-GlRpn11 pair", "value": "~2", "unit": "fold"}]}
